Experimental data published in publication PMC5700061 (Nature Communications, 2017).
Changes are numbered by the printed parent chain. In names and notes the source's numbering stands.

T1: furin-resistant mouse proNGF (mouse, UniProt P01139 122-241)
T1 chain: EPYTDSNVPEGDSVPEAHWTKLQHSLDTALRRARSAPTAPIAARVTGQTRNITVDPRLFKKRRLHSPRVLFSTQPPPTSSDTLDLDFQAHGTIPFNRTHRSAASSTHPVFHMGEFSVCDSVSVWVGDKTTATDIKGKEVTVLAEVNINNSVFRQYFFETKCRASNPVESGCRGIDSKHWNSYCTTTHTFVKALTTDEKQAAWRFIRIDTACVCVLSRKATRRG

B1: s-sortilin A464E (dimerization interface mutant of the mouse sortilin luminal segment) (domain or fragment)
chain: RRGAPAEDQDCGRLPDFIAKLTNNTHQHVFDDLSGSVSLSWVGDSTGVILVLTTFQVPLVIVSFGQSKLYRSEDYGKNFKDITNLINNTFIRTEFGMAIGPENSGKVILTAEVSGGSRGGRVFRSSDFAKNFVQTDLPFHPLTQMMYSPQNSDYLLALSTENGLWVSKNFGEKWEEIHKAVCLAKWGPNNIIFFTTHVNGSCKADLGALELWRTSDLGKTFKTIGVKIYSFGLGGRFLFASVMADKDTTRRIHVSTDQGDTWSMAQLPSVGQEQFYSILAANEDMVFMHVDEPGDTGFGTIFTSDDRGIVYSKSLDRHLYTTTGGETDFTNVTSLRGVYITSTLSEDNSIQSMITFDQGGRWEHLRKPENSKCDATAKNKNECSLHIHASYSISQKLNVPMAPLSEPNAVGIVIAHGSVGDEISVMVPDVYISDDGGYSWAKMLEGPHYYTILDSGGIIVAIEHSNRPINVIKFSTDEGQCWQSYVFTQEPIYFTGLASEPGARSMNISIWGFTESFITRQWVSYTVDFKDILERNCEEDDYTTWLAHSTDPGDYKDGCILGYKEQFLRLRKSSVCQNGRDYVVAKQPSVCPCSLEDFLCDFGYFRPENASECVEQPELKGHELEFCLYGKEEHLTTNGYRKIPGDKCQGGMNPAREVKDLKKKCTSNFLNPTKQNSKSN
modifications: native glycans (HEK293-E)
B2: Furin-resistant mouse proNGF (ligand)
chain: T1 chain with R31A, R32A, R62A, R63A

Experiments:
Settings in all cases: both partners purified
[1] = molecular target: T1, furin-resistant mouse proNGF; test: SPR; equilibrium binding, IBIS MX96; NGF, proNGF and proBDNF amine-coupled, s-sortilin as analyte; 25 mM HEPES pH 7.4, 150 mM NaCl, 0.005% Tween 20, 25 °C; 1:1 Langmuir model
[2] = molecular target: T2, Nerve Growth Factor (NGF), mouse (mouse, UniProt P01139 122-241); test: as above
T2 construct: Mouse NGF purified from submaxillary glands; the mature neurotrophin as against proNGF; also called Mouse NGF; source: bought: Biorad (purified from submaxillary glands)

[3] = molecular target: T1, furin-resistant mouse proNGF; test: SPR; equilibrium binding, IBIS MX96; NGF, proNGF and proBDNF amine-coupled, s-sortilin as analyte; 25 mM MES pH 5.0, 150 mM NaCl, 0.005% Tween 20, 25 °C; 1:1 Langmuir model
[4] = molecular target: T2, Nerve Growth Factor (NGF), mouse; test: as above
[5] = molecular target: T3, Mouse s-sortilin A464E, native glycans (mouse); test: SPR; MX96 (IBIS); NGF, proNGF and proBDNF amine-coupled to a P-COOH SensEye sensor, s-sortilin flowed over as analyte; 25 mM MES pH 5.0, 150 mM NaCl, 0.005% Tween 20, 25 °C; equilibrium binding, 1:1 Langmuir model
T3 construct: Sortilin (Sort1), mouse, luminal segment, residues 1-722 with A464E; secreted with a cystatin signal peptide; Same limits as Dm1; also called A464E s-sortilin; source: HEK293-E, secreted, purified (Ni-NTA, SEC)

Row | Binder | Kd [1] [nM] | Kd [2] [nM] | fold reduction of binding at pH 5.0 against pH 7.4 [3] [fold] | fold reduction of binding at pH 5.0 against pH 7.4 [4] [fold] | Kd [5] [nM]
1 | B1 | 810 | 320 | 2 | 2 | –
2 | B2 | – | – | – | – | 2280 ± 260
